# B1: Calnexin (CANX), endogenous (natural protein, UniProt P27824 21-592, looked up)
# chain: HDGHDDDVIDIEDDLDDVIEEVEDSKPDTTAPPSSPKVTYKAPVPTGEVYFADSFDRGTLSGWILSKAKKDDTDDEIAKYDGKWEVEEMKESKLPGDKGLVLMSRAKHHAISAKLNKPFLFDTKPLIVQYEVNFQNGIECGGAYVKLLSKTPELNLDQFHDKTPYTIMFGPDKCGEDYKLHFIFRHKNPKTGIYEEKHAKRPDADLKTYFTDKKTHLYTLILNPDNSFEILVDQSVVNSGNLLNDMTPPVNPSREIEDPEDRKPEDWDERPKIPDPEAVKPDDWDEDAPAKIPDEEATKPEGWLDDEPEYVPDPDAEKPEDWDEDMDGEWEAPQIANPRCESAPGCGVWQRPVIDNPNYKGKWKPPMIDNPSYQGIWKPRKIPNPDFFEDLEPFRMTPFSAIGLELWSMTSDIFFDNFIICADRRIVDDWANDGWGLKKAADGAAEPGVVGQMIEAAEERPWLWVVYILTVALPVFLVILFCCSGKKQTSGMEYKKTDAPQPDVKEEEEEKEEEKDKGDEEEEGEEKLEEKQKSDAEEDGGTVSQEEEDRKPKAEEDEILNRSPRNRKPRRE
# notes: ER-resident chaperone calnexin, endogenous; source: endogenous, HeLa-CIITA, DG-75 (B) and KG-1 (dendritic-like) lysates; endogenous in fixed HeLa-CIITA cells
# Biological target: T1, GFP-T6BP (TAX1BP1 / TRAF6-binding protein fused to GFP) (UniProt Q86VP1 1-789)
# T1 construct: plasmid a gift from F. Buss; it is written both GFP-T6BP and T6BP-GFP; also called T6BP-GFP; source: HeLa-CIITA, transfected, in lysate
# T1 sequence (Q86VP1 whole entry, the tested form may be a part): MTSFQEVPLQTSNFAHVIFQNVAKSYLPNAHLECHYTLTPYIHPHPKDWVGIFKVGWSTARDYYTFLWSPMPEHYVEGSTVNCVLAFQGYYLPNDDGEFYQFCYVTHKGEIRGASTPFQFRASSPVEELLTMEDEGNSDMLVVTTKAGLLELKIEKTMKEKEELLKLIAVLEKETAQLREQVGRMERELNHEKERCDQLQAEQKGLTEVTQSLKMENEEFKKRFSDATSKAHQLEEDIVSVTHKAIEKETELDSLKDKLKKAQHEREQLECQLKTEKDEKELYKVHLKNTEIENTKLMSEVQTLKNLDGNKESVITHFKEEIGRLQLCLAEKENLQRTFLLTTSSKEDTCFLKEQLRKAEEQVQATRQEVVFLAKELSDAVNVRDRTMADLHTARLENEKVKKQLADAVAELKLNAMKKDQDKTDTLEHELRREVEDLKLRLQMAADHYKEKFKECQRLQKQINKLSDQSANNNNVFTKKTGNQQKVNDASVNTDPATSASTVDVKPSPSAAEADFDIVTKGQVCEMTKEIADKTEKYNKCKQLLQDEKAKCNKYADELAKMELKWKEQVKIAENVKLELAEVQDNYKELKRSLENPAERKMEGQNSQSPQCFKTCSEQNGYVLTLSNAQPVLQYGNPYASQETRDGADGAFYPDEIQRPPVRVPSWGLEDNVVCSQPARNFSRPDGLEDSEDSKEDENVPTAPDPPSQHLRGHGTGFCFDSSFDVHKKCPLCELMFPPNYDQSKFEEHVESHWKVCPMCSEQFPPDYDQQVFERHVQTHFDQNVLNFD
# Test: co-IP; GFP-T6BP or GFP alone from transfected HeLa-CIITA lysate on GFP-Trap beads, Western blot for CANX
# Details: partners not purified
binder,measurement,value
B1,fold enrichment against the GFP control,3 fold

# Reference: article PMC9724678, “The Autophagy Receptor TAX1BP1 (T6BP) improves antigen presentation by MHC‐II molecules” (EMBO Reports, 2022)
